Test results taken from the supplement of paper PMC10567573.

B1: C20orf112 (parent)
chain: YANGGLNYSYRGYGALSSNLQPPA
B2: CLCN6 (parent)
chain: VGEIVGIITRHNLTYEFLQARLRQ

Variants of: B1
Experiment: protein stability index of a GFP-peptide fusion (GPS, HEK-293T) (PSI 1-6); higher = more stable
Details: c terminus: a fixed tail appended
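Also: lentivirally expressed fusions sorted by FACS into six bins by GFP to DsRed ratio, PSI derived from sequencing read proportions per bin multiplied by bin number.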

Protein stability index, by site and new letter:
G12: A 2.46 | D 1.42 | M 2.48 | Y 3 | C 2.85
L6: Y 2.47 | D 1.9 | T 1.96 | C 2.24 | V 1.85
N3: F 2.04 | M 1.5 | W 1.82 | A 1.64 | R 2.25
Y13: G 1.77 | V 1.73 | T 1.66 | W 2.96 | E 1.33
S18: R 2.21 | H 1.8 | D 1.42 | P 2.2 | Y 1.67
N19: C 2.05 | T 1.91 | W 2.61 | Y 1.57 | E 1.11 | I 1.71 | H 1.43 | G 1.42
Y10: W 2.66 | T 2.25 | P 1.92 | R 2.01
N7: F 3.66 | K 1.81 | E 2.52 | T 1.2
G5: D 2.08 | H 2.08 | E 2.4 | P 2.02 | M 2.49
R11: S 2.19 | I 1.98 | G 2.24
A15: Y 2.97 | D 2.07 | Q 1.77
S9: N 1.89 | D 1.97 | V 2.6 | C 1.7 | W 2.46 | E 1.43
Y1: Q 3.32 | P 2.43 | G 3.16 | D 2.9 | V 2.2
G4: N 2.02 | V 2.32 | I 1.93 | Q 2.06
Q21: V 1.59 | T 2.61 | G 1.21 | C 1.74 | S 2.5 | K 2.17
L16: M 1.75 | G 2.61 | Y 2.05 | S 2.03 | I 2.43 | Q 2.02 | T 1.76 | A 2.11
P23: V 1.84 | T 1.6 | G 2.6 | D 2.09 | I 2.09
G14: A 1.76 | L 3.28 | N 2.87 | S 2.32 | W 3.05 | P 2.54 | F 2.52 | Y 2.91
S17: H 1.9 | V 2.33 | L 1.39 | D 1.87 | E 2.23 | Q 1.55 | R 2.56 | N 1.88
Y8: D 1.95 | W 2.23
A24: G 3.04 | M 1.35 | S 1.82 | Q 2.27
P22: C 2.97 | R 1.76 | Q 2 | K 2.66 | I 2.35
A2: G 1.95 | N 2.3 | D 2.81
L20: W 1.84 | Q 1.71 | R 1.73 | P 1.88

Variants of: B2
Experiment: as above
Details: c terminus: a fixed tail appended

Protein stability index of substitutions, site by site:
V1: A 1.44 | C 2.26 | D 2.41 | E 2.25 | F 2.41 | G 1.27 | H 2.82 | I 2.88 | K 2.18 | L 1.76 | M 2.29 | N 3.06 | P 1.44 | Q 2.08 | R 1.58 | S 2.31 | T 1.65 | W 2.47 | Y 2.83
G2: A 3.29 | C 2.06 | D 2.23 | E 1.75 | H 2.81 | K 2.53 | L 2.48 | M 1.09 | N 3 | P 1.86 | Q 1.13 | T 2.6 | V 2.66 | W 3.19 | Y 1.98
E3: A 2.59 | C 2.72 | D 2.05 | F 1.43 | H 2.38 | P 3.11 | Q 3.17 | R 2.51 | T 1.74 | V 2.62 | W 2.42 | Y 3.28
I4: A 2.1 | C 2.18 | D 2.66 | E 2.51 | F 1.52 | G 2.33 | H 2.02 | K 2.15 | L 2.59 | M 2.33 | N 2.37 | P 2.88 | Q 2.38 | R 2.72 | S 2.23 | T 1.75 | V 2.06 | Y 2.53
V5: A 1.89 | E 1.76 | G 2.29 | H 1.92 | K 1.38 | M 3.11 | N 1.75 | P 2.46 | Q 1.37 | R 2.55 | S 1.83 | T 1.49 | Y 2.19
G6: E 4.38 | H 2.89 | P 1.7 | S 2.95 | T 3.72
I7: A 1.77 | C 2.31 | D 2.38 | E 2.07 | G 2.44 | H 2.05 | K 1.7 | L 2.53 | N 2.18 | P 2.56 | Q 2.72 | T 1.73 | Y 3.15
I8: A 1.27 | C 1.16 | E 3.29 | G 2.2 | H 1.79 | L 2.03 | N 3.2 | Q 2.47 | R 2.64 | S 2.65 | Y 1.21
T9: C 2.71 | D 1.92 | E 1.38 | F 2.35 | G 2.63 | K 1.29 | L 1.89 | N 2.88 | P 2.78 | R 1.4 | S 2.77
R10: D 2.73 | E 2.92 | K 2.19 | L 4.12 | N 2.88 | P 1.75 | T 3.15 | Y 1.93
H11: D 2.48 | G 1.76 | N 4.18 | V 2.32
N12: A 5 | C 2.21 | D 2.21 | E 1.16 | G 5.11 | H 3.27 | I 1.15 | K 2.04 | P 1.92 | Q 4 | R 2.69
L13: A 1.63 | C 2.08 | E 2.18 | F 2.15 | G 1.7 | H 1.51 | I 3.13 | M 1.86 | N 1.08 | P 1.94 | Q 1.69 | V 2.04 | W 3.73
T14: A 3.01 | E 1.22 | F 2.92 | L 2.29 | N 2.03 | Q 1.26 | V 2.98 | Y 3.07
Y15: A 2.07 | D 1.51 | F 2.95 | G 1.65 | K 1.47 | P 1.62 | Q 2.38 | R 4.35 | S 1.83 | V 1.63
E16: G 1.02 | H 2.17 | K 1.52 | L 3.17 | P 1.8 | Q 1.93 | R 2.46 | S 2.17 | W 3.79
F17: C 1.8 | E 2.01 | G 3.15 | H 1.04 | I 2.02 | P 2.11 | Q 2.76 | S 2.71 | T 1.87
L18: A 2.67 | D 2.26 | E 3.96 | F 2.71 | G 1.58 | I 2.62 | K 2.67 | M 2.33 | N 1.6 | P 2.81 | Q 2.07 | R 2.55 | S 1.02 | Y 4.04
Q19: E 2.47 | G 1.52 | I 3.35 | K 4.39 | P 1.62 | S 2.49 | Y 1.01
A20: I 2.56 | L 2.08 | Q 2.04 | S 2.02
